Source: PMC5834214 (PLoS Pathogens, 2018)

How the values were obtained:
LCMV NP (Strep-NP) = LCMV NP (Strep-NP) (Lymphocytic choriomeningitis virus, UniProt P09992)
eGFP = eGFP (Aequorea victoria, UniProt P42212, F64L/H231L/S65T)

LCMV NP (Strep-NP), sequence (P09992 whole entry): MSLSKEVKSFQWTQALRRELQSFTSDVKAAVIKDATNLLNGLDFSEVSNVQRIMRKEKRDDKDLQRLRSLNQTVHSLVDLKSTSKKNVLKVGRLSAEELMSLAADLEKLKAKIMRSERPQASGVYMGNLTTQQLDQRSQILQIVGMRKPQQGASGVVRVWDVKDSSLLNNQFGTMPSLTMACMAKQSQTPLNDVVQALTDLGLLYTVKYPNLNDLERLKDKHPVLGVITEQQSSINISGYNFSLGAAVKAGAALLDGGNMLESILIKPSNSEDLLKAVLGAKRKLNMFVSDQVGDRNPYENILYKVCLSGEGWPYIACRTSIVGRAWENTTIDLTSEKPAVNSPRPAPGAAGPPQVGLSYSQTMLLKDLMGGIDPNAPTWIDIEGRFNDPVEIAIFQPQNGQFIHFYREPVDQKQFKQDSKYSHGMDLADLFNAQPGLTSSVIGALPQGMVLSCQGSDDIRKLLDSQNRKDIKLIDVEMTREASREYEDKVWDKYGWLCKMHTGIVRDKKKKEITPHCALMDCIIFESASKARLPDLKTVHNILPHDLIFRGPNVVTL

B1: HNRNPC (protein, UniProt P07910 2-306, looked up)
Heterogeneous nuclear …: ASNVTNKTDPRSMNSRVFIGNLNTLVVKKSDVEAIFSKYGKIVGCSVHKGFAFVQYVNERNARAAVAGEDGRMIAGQVLDINLAAEPKVNRGKAGVKRSAAEMYGSVTEHPSPSPLLSSSFDLDYDFQRDYYDRMYSYPARVPPPPPIARAVVPSKRQRVSGNTSRRGKSGFNSKSGQRGSSKSGKLKGDDLQAIKKELTQIKQKVDSLLENLEKIEKEQSKQAVEMKNDKSEEEQSSSSVKKDETNVKMESEGGADDSAEEGDLLDDDDNEDRGDDQLELIKDDEKEAEEGEDDRDSANGEDDS
For B1, the “Spectral count NP Average” value (LCMV NP (Strep-NP)) was 4.5, the “Spectral count NP Exp. 1” value (LCMV NP (Strep-NP)) was 4 and the “Spectral count NP Exp. 2” value (LCMV NP (Strep-NP)) was 5. For the same molecule, the “Spectral count eGFP Average” value (eGFP) was 0, the “Spectral count eGFP Exp. 1” value (eGFP) was 0 and the “Spectral count eGFP Exp. 2” value (eGFP) was 0.
